Experiment: soluble on expression in E. coli; label from the status in PepcDB or PDB records

Sequence | soluble on expression in E. coli
MAHHHHHHMPIPSPPPPMRFVPNGVGGGGARDLTAVKEPNFEVLETSSPVPARVIHNAPASAVPSGTQRPVEAPPSTHATGAQHHPKAVHSPPLACPALAMTSTPASSSSSSSSQQVAQLWQLVQDLTAENAVLQQRVRVLMEGETHDAILPGMLTAPSSPEETEALLLRVRRLEAALKVEAMEREALEVRLQAQEQVLTRLLRR | soluble
MAHHHHHHMPKEVQEKDEFFYFFNHFCFYIINETKQYALSYKMNFAFYLPYGSLGVDVLKNVFDYLHYLDVPTILDIKMNDIGNTVKHYSKFIFHYLRSDSCTANIYMGTHMLRDICLDEECKRHYSTFVLIKTTNPDSHIFQNRLSLDGKEAYVVIADEAQKMAKQLHLEENGEFVGFVVGANCYDEMKKIRELFPDCYILAPGVGAQKGDLRKTLCNGYSKNYERLLINVGRAITKSGNPQQAAREYYHQIKEILAEL | not soluble
MAHHHHHHMPPFFEARAEKLMLAAQEECRLLAAQLEKSRAARAASTCGPQGKIRAAPATAPVAATSPPSPRRTYSAATATVAVKGLSIGSSTSTSPDRAGSPSAAPPSASPARVVIPTAATHKEGTLLHLVRGSGLFGSGSRSFVPHYIAVSGSAGISWYASEAEYRQNPSRPLGHADFWIETFNSRGSRFKKAAVCWPLILPDDCPEAKDANKTYFAVDYYTPDEAREQVVLAASSPAERDEWVQLLTKYIDLYLAPRAESEELQHIPRGAEVPLHRSGVIEGEAPGGNIL | soluble
MAHHHHHHMPQRSHVPLASPSPLNAPPPLTSRPGPVNYCGAHAEPAAGLNYTHHDDHRSVFRDQASCDPSPSQRALHQQQVHRPRAVSPGPHDGSAPHVSALVARGAVIRADELETILDEQNYIWQMEEYRFRTERQKRLTALQHRQHELMLESARYDQAVAEVERQLARERQRLEELRQMMARNATTSCSPIDREHGLQDPPTAMSDAPHVIARNSSAMHHGQARDHAYSAPHDAPYFPTGASDGLSAMNEEEVIAEV | not soluble
MAHHHHHHMPRNRSSGDDGGGGGKRGGRYAAVVEKGENAWKREWSSFMSGVNLKRLRDGTSGVTLKASADIERQLVAREAAPSSSSVAGEHDNGNDVEVNADGIPLGAIASHASFSYLFSSPAERRAERDARERAEAERRQAHKRELMAKKDPLSVLSKHQRAMHNAEQRGLQLDGMTRKERRSFLHLTVTEAQRKAEEQSREFKLHDLMDEKLAWYQQGPHPIDLIAEKLVRRKAEKKGKQLGLKYNYLAPHPSWLAKRAQRRRESLLVGLGKRLIFLERVTGEDKDDATTVPSSEVMVTDPLHHLTVPLSEMGRLLGQHGSASLSAAAAAAADADALVTAAAGSSSGDDIEDVKGADEEGAQHLGGEVDRGHRGDVTAARKKAVSASSAASSAGGCSSASPGKRASGEAGDDGVGNDAAQMRLPDVVVLQDPSRIATSLVRTVARDRTTALAIQQINRTTNFLSSGLVKGPSLRPEDALPGNGLSPRGLGAAPAAAALTPSPKSSMVAASMQDSAANSTKGAATTSRGASAAGRGRRRVRVADGEEEGGERRRHRRGADVSAGESQTKTSKPTASPSPRPRGARPPPTHTHELRDITSRSGPSKSQGGQVSSSKTKRQRANSRYD | not soluble
MAHHHHHHMPRRFVAEYVTKHLCGVRVLESFAETSTATGVIGTHNGSFHCDEAMACGLLRCSQNFGQSNILRSRDPNALERCNIVVDVGSVYDEATLRFDHHQPSFHDTMKTPKAAYQTRLSSAGLVYKHFGREIIQGYVESALASPYRVKLLDATKWGTDKKKLSEQELDILFDIVYKNFVEHIDGIDNGVNAYGPAETEGEEGAVPVSSSSPSCVKKYNVSTTLSARIGNLMPWWNEEGNGKVENENAAFLQAMELATSEFFDSVHYHVFAWMPARGIVRAAFLEAMNVHPSGRIVVFKDCFCPWKEHLLELEEEHGKVGHVLYVLFADKKGWRVQAVPKEASGFENRKSLPWRGLRDEELSQASGIEGGIFVHVSGFIGGNKTYEGALQMAVKALTVVN | not soluble
MAHHHHHHMQLLHAQQEGMKNIRQSEASHSDENDKKERGTRSGSTTGTCSEFDVCAVYDDDDVPLAAQFVRSCPPLTDPSWAMEELLRINSHVAVWTGSALPNSVWALPGSGHCPFGSTDADFARIR | not soluble
MAHHHHHHMQLQADLTQRTDSVNAIQRNFERLSAMHHAEQLELRRLRLLEKTRSEVAPDGLDAATRQLESVLAEMRHKALEQQTTFVQMEVDLQAANSSCALQQGIARLIASHADGFRDVLQAEAVAHSQLYQSAMSERAIIGSRNEATQQQLLCKDVAQLVADHQAQIVTKLIRGGAAESCRLQKSLAQVSTATVQELVRQGLRETAEAVHQYVASIHAADQERVLAEAEGQRDRERLRLALGELLRLRLRATEEAEATARQALLFGALQACATAQRAAEEVRLLTANADAAAAATRSSWEVTAALLTRRVSDWHDAADMRLVDFHDTIEASMAEKARERDAQSQQKTQELLLEERKRLENLHASQMQTMQVDWRRQRDAVQQSHAMQLEQVRSDLVAQVQVAEDRRVAAERRTGAMEAALIQLKRDHAAEVQAVEAHWRSAVSDAGRHCEQRWRTMLEVYQEGQKAHRGAMLQLFVDFLCTRGQCVYEEQAERAALCRSHWRNQTQHLREEQAAVMQHGVATADLLERMRCHKEDEAASRAVLHASEASDWAALVRKEAAHNAQAHHAVSMAAAAAGLEGLRAEMAGREVRWGQRLDALEADLRRAQQKCLGVVRRASDAVVAAQEAQAALQATQRDFAAYRCGVSAAAQRIEVAESATESACCCSLCLQLYCQPVACVPCGHIYCANCLLRHARNRSLSSVTSSFASAAGASTSENGAVGARAALEVTHWLRGKSTPHAFLFCPECASATVSTVVELPILGELTAKYDYKKRSLAVLLAELR | not soluble
MAHHHHHHMQLSRYSPPPSSSSSSLLSTVMQAKDVVTRLGPSERFPGLCGVFLTKPIKKFHPIEVLPTAASAAATTTTAATADSSAERPDASRSPTSAIVSQAPPFVLNLAFAPRHSISLRRFLALRHMFSTSAYLHVATEDGWYLVAPSSAAPLCPDVTGLQAWCCRHHHRYLKHAATAVTAATSSSTPSSRAPRCSTHTGIAKLEAALDNGEELSEEQLQRLAAQEKAFFAHTPENEEADIDDDTDETDDMPAVREPRHPLSQKTAAPTAETLRKRSAGAPASAFGLSPPLIPEAHLFDINDGVAWLLPPSDDLANHEYWKSHRQRMALYESTGDADAAEQREALLATLRADPAIAQHLSSEQELYAAAEALFQALKHKANVTLNVDADTGLLTLVPLRDLHAGEELLLHYGREWWTGRLLFSLLLSVSDAEMPQIRWIEQLFDHAVDRSEPFPLLIVAHEQRKRPRRGCSGGAKVRKGLKNESSGDGDEQQQQSTQCASLTKPHGDSAETSSTTAMTAELPVSQRKLGRAVLYNTVTHKRATDAAVLAFAVRRSCIEPCFLSRLLAGDAAGGVEPVFYLSEPDKEVPMRVLRRVLLASLRGTTASAQRSIPHKDESASVVAGSAVADTAAAVVDQGAPPQTSTNTGGDGDDGDDAVFSV | soluble
MAHHHHHHMQVTETVLARAVIKRRSPQLWGAPGAPIIRMRGHHVVWKFQSYDLVVEHTHKRRNSDIRLLHYLGKHCPHPQKSLWSPDTPVAQDRHLFMLTTVDIDAFKYWFGVKRCRLSMKPWALLAKAGLLPPSLTQNSKIMPKPLFDKESLMRYYLANRKDEDVMAREKYLNYENSMVKTEEERAAERPVAPYL | soluble
MAHHHHHHMQWKKDDLFEGLRKLPRTPGELFGHRNKLNFILQKRFFIAPDMVELALNRQNGEQFNRCYAKLVMQAVAKFNNTTRSQLKVRVDPRLPKGLQLIQPDDKDTGANLKSKKSEKAASGRLNAFSNTTSGQQRKPQQRQQSRYCSPQSGGVSPRVVMPIDPAERDCLYATYLRARTPQSGTPDYSDMMLQSPSCATDGKTTMFSEDGSSALRSATRRSAGDVHFATPPVFKGFERTLELTPADSPTESLPLHF | not soluble
MAHHHHHHMQYINDEGYRIDGRKNDECRLIKISLGNGNELIDVDGFSFFEIGNTKLFAYIQGPNEYRRPDEKCLVKCNVFLSPFNILEKKRKKSKDNVTREISSYIRNICNHIILLDLYKNSEINIFLYIIERDGGLKAAAVNTCILALIDAGIAIKYFISASSVLYLQNNIIVDGNQFEVNSGSPELTLAIDMSSNNIVLLEFDAEVPIDIFQSMLKTCAQACIHVGNIMKLSIKENAIKLLSLNSILNT | not soluble
MAHHHHHHMRAESSGSESQSRQSERTCGVSPGGPGGPGASPSIVVAVRKRPRIPGREDDENDVVRCGENGGPSVTVYEPRTKLDLTPIIEPSSFSYDHVFGEACTNEEVYRGCCQPLLQNVREGGGAVIFAFGQTGSGKTHTMLGTGERPGLYSLAVTELLTMTEHSTMTASFYEAYGAKLYDLLNDRAEVKMLQDEYQNVHIVGITEQIVSSVDDVNALMMRGQQLRAIGTTHANDRSSRSHAVLEIKLKLADSSSESQLGRITFVDLAGSERASDTAETDAKTRREGAEINKSLLALKECIRAMSMRKRHIPFRGSKLTQILRESFVGRCKTCVIAAISPCQGHCEDTLNTLRYADRIKELKGPANPHNGVKPIPCKTCGQPIFIGDRHVCKRQLVVCPHCRQDVDKQELDTHMSECKESPMRCQYCNERMLRSESVGHSRRCARAPIRCGACGATVPRQLIDRHAQQECAEAKVKCRYCGCVQSRQLLAAHEQNCDAAKVACPHCLQFMRKRRLDGHVATCVRNLSRAMHTPRSTALNIIASTSMETSQTLASSSSSIGAQQSIPKSATAQTAASSRASSSHNRNVAAEPAGGQVDLVAADEGTGPLNFTRAHSSRRSSAQLASGVSLANQSQSNRAPGAGGRWNAGALGADEVSAACDSDCGSVVCPYSRYGCPVKVTRLNVAAHLKESMQQHLELVTTYADRVDEQNMQLRRLVIHETDTLSSRVTMERLDK | not soluble
MAHHHHHHMRCCSTALRTGRRGPGGWTEPRLQQATSTDFMRDSTGTGGDNNNNNNNDGGKGPSSALKRHFNVNDFSMIERQQMTLTKLMRITMDATFKPKDPDSRTYGGDGATQRAALREELKTMDSRIVPFAHEEILNDYLKNIVELSGPSGQRYDREMLRGRLVGLLFFTETDRSLAFMRLLREFHQRHRRDFVVVAISLGGKEMMDITRQHGFYHCSHRDGATWVQRDTGLMVRPWTPLPRLIVVNGTSGEEITSSGVTAVKAHPNTCFEKWKNGEEGCDWWDYIKTFYM | soluble
MAHHHHHHMRCFRASCCAPSPWQRACSTVASVSDTADLVIVRESPLDNVVLLEMNNGRANVLTPEFISAFLNKLSDLCDPDKSKCSGIILTSKSPGVFSAGLDLNELNTNLSQDRFAQYWSQFQKLFTTLHALPVPLVGAINGHAAAAGCIVALACDYRVMARRHPTKPTHLTIGIAAAKHGFVVPSYVAASMEHVVGFRKAEELLCMGLLLSAGEALKVGLVDEVVEHHDETVVPCLQFMEKLLELPSPAPYWMIKDLSRRHILAPLCTPALRTQDMVSFYNLFSNLQVKKMLAEHAQKFAKK | not soluble
MAHHHHHHMRCVRRSVLGSRGLKRPMFNYTRIFSMGITQHTFTGALLEDLRAGGCCGDQTEDNPGSSLRHGELDHFESPEAEAAHVEKVNTVVDDLFSRMPLPEDPMGAALAPTKEEMEEKAEWDVLKEVVRERYQRKIALKEAERVRIDKAMQHYRVDKDIEGGVSGVTGATGDSEKIRKKIERMKQEIVELERRLEAANHDDNL | not soluble
MAHHHHHHMRLLTHNFLACLKCDTYPLLVTAAEMEEIPVEYDAEFTRRMLARVDYASLRTTFHALREAHESVRGPSHDEGADTAEGALASSELPETMEGADFSDHSAFLRTAHYAMNVVAVRNGTLECPACKTTFSINDFIPNFVPEAK | soluble
MAHHHHHHMRLTASRALLQQAGEMCTALHWMCRIAARVPESGLSGSQLQALLDDEFPSFSPSEVGAVTLKEAVLRFPELLSVEDGSQLQAKWRVRPTHAHKTQEQRASPSSKPTETYTLPMMKLQQFCTKRARMHRNTYMPLEYVLSKADITDVNIVGEVLHNPDAALDVQAGVRIKPKRTPRAVVAFVDGDALPAVAVDEMCNELNVLKESSIVTIVRQPGSHELSAVDIVCPDVIPTYLSIEKHAHELRLRRPNVRHDVVYMCAASQFNIYADRVALLNDFPDADVYVCCPSMIALVKPKKVIPFE | soluble

Reference: the DeepSol protein solubility set
